This note sets out measurements from patent US20050042205A1.

The assay has as its target rat luteal LH/CG receptor (LH/CG-R) expressed from the cloned cDNA (expression vector pCLHR) in transiently transfected human kidney 293 cells (rat) (UniProt P16235).

In turn, “human choriogonadotropin, highly purified (CR-123; 12,780 IU/mg) (from UniProt P01215) (ligand)” gave an EC50 of cAMP production of 40 to 80 pM.
